# What was measured:
# [1] = Stability of modified RNA on storage (gel electrophoresis); assay type: physicochemical
# Procedure: Stability experiments were conducted to obtain a better understanding of storage conditions to retain the integrity of modified RNA. […] 40° C. 37° C. 25° C. 4° C. or −20° C. After the mRNA had been stored for 0 hours, 2 hours, 6 hours, 24 hours, 48 hours, 5 days and 14 days, the mRNA was analyzed by gel electrophoresis using a Bio-Rad EXPERION™ system. The modified, unmodified and lipoplexed G-CSF mRNA was also stored in RNASTABLE® (Biomatrica, Inc. San Diego, Calif.) at 40° C. or water at −80° C. or 40° C. for 35 days before being analyzed by gel electrophoresis.
# mRNA samples stored at 4° C. 25° C. and 37° C. were stored in 1×TE buffer or the formulation buffer (150 mM sodium chloride, 2 mM calcium chloride, 2 mM phosphate, 0.5 mM EDTA at a pH of 6.5). The mRNA stored at 4° C. was stable to at least 60 days in both the TE and formulation buffer. At 25° C. the mRNA in formulation buffer was stable out to 14 days and the TE buffer was stable out to at least 6 days. Storage of mRNA in the formulation buffer at 37° C. was stable to 6 days compared to the TE buffer which was stable only until 4 days.
# [2] = tested on: mice; assay: Saline formulation: human protein in mouse serum 13 hours after injection; assay type: in vivo; conditions: G-CSF group, 100 ug
# Procedure: The mice were bled at 13 hours after the injection to determine the concentration of the human polypeptide in serum in pg/mL. (G-CSF groups measured human G-CSF in mouse serum and EPO groups measured human EPO in mouse serum).
molecule,measurement,setting,value
"G-CSF Gen 1: G-CSF mRNA SEQ ID NO 6, Cap1, fully modified with 5-methylcytosine and pseudouridine (nucleic acid, listed as Homo sapiens, Cap1; 5-methylcytosine, pseudouridine) GGGAAAUAAGAGAGAAAAGAAGAGUAAGAAGAAAUAUAAGAGCCACCAUGGCCGGUCCCGCGACCCAAAGCCCCAUGAAACUUAUGGCCCUGCAGUUGCUGCUUUGGCACUCGGCCCUCUGGACAGUCCAAGAAGCGACUCCUCUCGGACCUGCCUCAUCGUUGCCGCAGUCAUUCCUUUUGAAGUGUCUGGAGCAGGUGCGAAAGAUUCAGGGCGAUGGAGCCGCACUCCAAGAGAAGCUCUGCGCGACAUACAAACUUUGCCAUCCCGAGGAGCUCGUACUGCUCGGGCACAGCUUGGGGAUUCCCUGGGCUCCUCUCUCGUCCUGUCCGUCGCAGGCUUUGCAGUUGGCAGGGUGCCUUUCCCAGCUCCACUCCGGUUUGUUCUUGUAUCAGGGACUGCUGCAAGCCCUUGAGGGAAUCUCGCCAGAAUUGGGCCCGACGCUGGACACGUUGCAGCUCGACGUGGCGGAUUUCGCAACAACCAUCUGGCAGCAGAUGGAGGAACUGGGGAUGGCACCCGCGCUGCAGCCCACGCAGGGGGCAAUGCCGGCCUUUGCGUCCGCGUUUCAGCGCAGGGCGGGUGGAGUCCUCGUAGCGAGCCACCUUCAAUCAUUUUUGGAAGUCUCGUACCGGGUGCUGAGACAUCUUGCGCAGCCGUGAAGCGCUGCCUUCUGCGGGGCUUGCCUUCUGGCCAUGCCCUUCUUCUCUCCCUUGCACCUGUACCUCUUGGUCUUUGAAUAAAGCCUGAGUAGGAAG",stable out to,"[1]; stored at 25° C., with or without lipoplex",120 h
same,stable out to,[1]; stored at 37° C.,24 h
same,stable out to,[1]; stored at 50° C.,6 h
same,"Average Protein Product, human G-CSF",[2],"45 pg/mL, serum"

# — US20200164038A1, “MODIFIED NUCLEOSIDE, NUCLEOTIDE, AND NUCLEIC ACID COMPOSITIONS” (ModernaTX, Inc., priority 2011, published 2020)
